Results on 17 molecules are retold here after patent US20210145976A1 (ARO BIOTHERAPEUTICS, published 2021).

The target of one assay is CD71 on SK-BR-3 cells (human, UniProt P02786 1-760). Description: cell-based or functional assay.
In assay [1] the target is T1, recombinant biotinylated CD71 extracellular domain (Sino Biologics) with an N-terminal 6His tag (human, UniProt P02786 89-760, biotinylated (sites not given)).
T1 construct: extracellular domain; also called hCD71; huCD71
Nature of the assay: screening ELISA. Background: An ELISA detects its analyte on a solid surface through an enzyme-linked reagent.

Assay [2] concerns the target T1, recombinant biotinylated CD71 …. Nature of the assay: screening ELISA, ratio.

T1 sequence (P02786 other isoform, or with tags, fused parts or gaps): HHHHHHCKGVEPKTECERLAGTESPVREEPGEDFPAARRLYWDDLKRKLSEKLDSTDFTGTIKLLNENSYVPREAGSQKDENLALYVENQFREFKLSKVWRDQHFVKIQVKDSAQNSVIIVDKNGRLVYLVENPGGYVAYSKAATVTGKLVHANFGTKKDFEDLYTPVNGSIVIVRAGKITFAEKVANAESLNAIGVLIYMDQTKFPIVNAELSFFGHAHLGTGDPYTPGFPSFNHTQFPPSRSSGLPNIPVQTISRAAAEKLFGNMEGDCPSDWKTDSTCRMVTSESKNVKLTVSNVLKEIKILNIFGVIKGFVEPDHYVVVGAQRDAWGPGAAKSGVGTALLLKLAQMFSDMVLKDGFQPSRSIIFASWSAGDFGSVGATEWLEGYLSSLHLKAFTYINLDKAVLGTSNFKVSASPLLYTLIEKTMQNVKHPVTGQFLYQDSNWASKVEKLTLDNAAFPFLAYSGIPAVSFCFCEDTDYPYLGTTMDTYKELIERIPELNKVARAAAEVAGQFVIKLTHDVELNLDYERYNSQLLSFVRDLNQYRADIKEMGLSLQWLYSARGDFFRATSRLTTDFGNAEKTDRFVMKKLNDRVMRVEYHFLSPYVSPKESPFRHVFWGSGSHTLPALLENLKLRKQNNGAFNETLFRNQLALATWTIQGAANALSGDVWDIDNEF
Sequence of CD71 on SK-BR-3 cells (P02786 whole entry, the tested form may be a part): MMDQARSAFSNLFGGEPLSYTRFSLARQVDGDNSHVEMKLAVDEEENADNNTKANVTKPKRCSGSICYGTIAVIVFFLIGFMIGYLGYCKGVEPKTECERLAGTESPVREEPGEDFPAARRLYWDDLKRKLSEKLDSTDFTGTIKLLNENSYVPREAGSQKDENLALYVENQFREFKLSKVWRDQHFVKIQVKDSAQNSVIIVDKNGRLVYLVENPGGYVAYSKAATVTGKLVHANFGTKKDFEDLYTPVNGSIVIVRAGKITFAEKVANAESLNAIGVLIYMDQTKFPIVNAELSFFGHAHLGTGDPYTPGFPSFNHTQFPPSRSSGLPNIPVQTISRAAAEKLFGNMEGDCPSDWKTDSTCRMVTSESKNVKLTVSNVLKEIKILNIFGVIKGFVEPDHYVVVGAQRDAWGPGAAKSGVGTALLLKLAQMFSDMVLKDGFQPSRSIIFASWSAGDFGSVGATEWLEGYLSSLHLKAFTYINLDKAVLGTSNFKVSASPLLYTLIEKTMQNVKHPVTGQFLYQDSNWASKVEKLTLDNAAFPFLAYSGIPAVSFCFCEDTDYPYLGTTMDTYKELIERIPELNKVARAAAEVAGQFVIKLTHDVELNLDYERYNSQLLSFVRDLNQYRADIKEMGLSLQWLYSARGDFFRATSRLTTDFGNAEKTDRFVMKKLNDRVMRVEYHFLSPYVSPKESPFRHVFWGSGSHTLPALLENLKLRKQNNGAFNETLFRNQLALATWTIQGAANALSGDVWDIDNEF

B1: SEQ ID NO 146 (designed binder)
chain: MLPAPKNLVVSRVTEDSARLSWTAPDAAFDSFYIAYAEPRPDGEAIVLTVPGSERSYDLTGLKPGTEYSVLIHGVKGGLLSSPLSAIFTT
notes: FN3 domain
As for B1, in the assay with CD71 on SK-BR-3 cells, the “IC50, SKBR-3 viability, MMAF conjugate, first unlabelled column (+/- human transferrin)” value was 7.13 nM and the “IC50, SKBR-3 viability, MMAF conjugate, second unlabelled column (+/- human transferrin)” value is 3.46 nM. In assay [1], the hCD71 stood at 3.07e+06. In assay [2], the “hCD71:HSA” value was 809.

B2: SEQ ID NO 197 (designed binder)
chain: MLPAPKNLVVSRVTEDSARLSWTAPDAAFDSFKIDYLEINDNGEAIVLTVPGSERSYDLTGLKPGTEYPVYIWGVKGGYPSSPLSAIFTT
notes: FN3 domain
B2: in the assay with CD71 on SK-BR-3 cells, the “IC50, SKBR-3 viability, MMAF conjugate, second unlabelled column (+/- human transferrin)” value is 0.468 nM. Moreover, in assay [1], the hCD71 came out at 4.57e+06. Moreover, in assay [2], the “hCD71:HSA” value was found to be 242.

B3: SEQ ID NO 237 (designed binder)
chain: MLPAPKNLVVSRVTEDSARLSWTAPDAAFDSFTILYGEMGTTGEAIVLTVPGSERSYDLTGLKPGTEYDVFIEGVKGGELSWPLSAIFTT
notes: FN3 domain
Consider B3, for which, in the assay with CD71 on SK-BR-3 cells, the “IC50, SKBR-3 viability, MMAF conjugate, first unlabelled column (+/- human transferrin)” value amounted to 28.1 nM and the “IC50, SKBR-3 viability, MMAF conjugate, second unlabelled column (+/- human transferrin)” value amounted to 3.76 nM. For the same molecule, the hCD71 in assay [1] turned out to be 4.15e+06. In addition, in assay [2], the “hCD71:HSA” value stood at 2240.

B4: SEQ ID NO 278 (designed binder)
chain: MLPAPKNLVVSRVTEDSARLSWTAPDAAFDSFPIAYAEPRPDGEAIVLTVPGSERSYDLTGLKPGTEYSVLIHGVKGGHLSDPLSAIFTT
notes: FN3 domain
Take B4: in the assay with CD71 on SK-BR-3 cells, the “IC50, SKBR-3 viability, MMAF conjugate, first unlabelled column (+/- human transferrin)” value worked out at 13.2 nM and the “IC50, SKBR-3 viability, MMAF conjugate, second unlabelled column (+/- human transferrin)” value came to 3.7 nM. In assay [1], the hCD71 worked out at 3.69e+06. In assay [2], the “hCD71:HSA” value came out at 568.

B5: SEQ ID NO 212 (designed binder)
chain: MLPAPKNLVVSRVTEDSARLSWTAPDAAFDSFIIEYWEQIGVGEAIVLTVPGSERSYDLTGLKPGTEYWVGIYGVKGGLLSSPLSAIFTT
notes: FN3 domain
Consider B5, for which the “IC50, SKBR-3 viability, MMAF conjugate, second unlabelled column (+/- human transferrin)” value with CD71 on SK-BR-3 cells came to 6.69 nM. In addition, the hCD71 in assay [1] came to 2.49e+06. Besides, the “hCD71:HSA” value in assay [2] is 1110.

B6: SEQ ID NO 174 (designed binder)
chain: MLPAPKNLVVSRVTEDSARLSWTAPDAAFDSFFIGYLEPQPPGEAIVLTVPGSERSYDLTGLKPGTEYKVVIQGVKGGTPSEPLSAIFTT
notes: FN3 domain
B6: the “IC50, SKBR-3 viability, MMAF conjugate, second unlabelled column (+/- human transferrin)” value in the assay with CD71 on SK-BR-3 cells amounted to 158 nM. The hCD71 in assay [1] is 2.42e+06. For the same molecule, the “hCD71:HSA” value in assay [2] was found to be 1100.

B7: SEQ ID NO 233 (designed binder)
chain: MLPAPKNLVVSRVTEDSARLSWTAPDAAFDSFYIVYAEPIPNGEAIVLTVPGSERSYDLTGLKPGTEYSVLIHGVKGGRNSDPLSAIFTT
notes: FN3 domain
On to B7, for which, in the assay with CD71 on SK-BR-3 cells, the “IC50, SKBR-3 viability, MMAF conjugate, first unlabelled column (+/- human transferrin)” value came out at 54.6 nM and the “IC50, SKBR-3 viability, MMAF conjugate, second unlabelled column (+/- human transferrin)” value was 17.7 nM. For the same molecule, in assay [1], the hCD71 turned out to be 3.41e+06. In assay [2], the “hCD71:HSA” value is 1310.

B8: SEQ ID NO 164 (designed binder)
chain: MLPAPKNLVVSRVTEDSARLSWTAPDAAFDSFLIPYAETSPSGEAIVLTVPGSERSYDLTGLKPGTEYSVLIHGVKGGHLSDPLSAIFTT
notes: FN3 domain
On to B8, for which, in the assay with CD71 on SK-BR-3 cells, the “IC50, SKBR-3 viability, MMAF conjugate, first unlabelled column (+/- human transferrin)” value turned out to be 18.7 nM and the “IC50, SKBR-3 viability, MMAF conjugate, second unlabelled column (+/- human transferrin)” value stood at 55.8 nM. Also, the hCD71 in assay [1] is 2.6e+06. The “hCD71:HSA” value in assay [2] stood at 2370.

B9: SEQ ID NO 152 (designed binder)
chain: MLPAPKNLVVSRVTEDSARLSWTAPDAAFDSFFIGYLEPQPPGEAIVLTVPGSERSYDLTGLKPGTEYNVTIQGVKGGFPSSPLSAIFTT
notes: FN3 domain
Turning to B9, in the assay with CD71 on SK-BR-3 cells, the “IC50, SKBR-3 viability, MMAF conjugate, first unlabelled column (+/- human transferrin)” value amounted to 19.6 nM and the “IC50, SKBR-3 viability, MMAF conjugate, second unlabelled column (+/- human transferrin)” value amounted to 5.24 nM. Besides, in assay [1], the hCD71 was found to be 2.83e+06. Further, the “hCD71:HSA” value in assay [2] came to 534.

B10: SEQ ID NO 296 (designed binder)
chain: MLPAPKNLVVSRVTEDSARLSWTAPDAAFDSFFIGYLEPQPPGEAIILTVPGSERSYDLTGLKPGTEYNVTIQGVKGGFPSMPLSAIFTT
notes: FN3 domain
B10: in the assay with CD71 on SK-BR-3 cells, the “IC50, SKBR-3 viability, MMAF conjugate, first unlabelled column (+/- human transferrin)” value turned out to be 29.3 nM and the “IC50, SKBR-3 viability, MMAF conjugate, second unlabelled column (+/- human transferrin)” value worked out at 18.6 nM. For the same molecule, the hCD71 in assay [1] was determined as 2.7e+06. Further, the “hCD71:HSA” value in assay [2] amounted to 844.

B11: SEQ ID NO 214 (designed binder)
chain: MLPAPKNLVVSRVTEDSARLSWTAPDAAFDSFAIPYGERQELGEAIVLTVPGSERSYDLTGLKPGTEYFVVIQGVKGGQPSYPLSAIFTT
notes: FN3 domain
As to B11, in the assay with CD71 on SK-BR-3 cells, the “IC50, SKBR-3 viability, MMAF conjugate, first unlabelled column (+/- human transferrin)” value stood at 28.1 nM and the “IC50, SKBR-3 viability, MMAF conjugate, second unlabelled column (+/- human transferrin)” value came out at 29.2 nM. Further, the hCD71 in assay [1] worked out at 2.14e+06. The “hCD71:HSA” value in assay [2] was 974.

B12: SEQ ID NO 257 (designed binder)
chain: MLPAPKNLVVSRVTEDSARLSWTAPDAAFDSFHIVYHEPRPSGEAIVLTVPGSERSYDLTGLKPGTEYEVGIVSVKGGDLSVPLSAIFTT
notes: FN3 domain
Regarding B12, in the assay with CD71 on SK-BR-3 cells, the “IC50, SKBR-3 viability, MMAF conjugate, first unlabelled column (+/- human transferrin)” value is 22 nM and the “IC50, SKBR-3 viability, MMAF conjugate, second unlabelled column (+/- human transferrin)” value came out at 6.5 nM. In addition, in assay [1], the hCD71 stood at 2.37e+06. In addition, in assay [2], the “hCD71:HSA” value turned out to be 601.

B13: SEQ ID NO 303 (designed binder)
chain: MLPAPKNLVVSRVTEDSARLSWTAPDAAFDSFFIAYFEFANPGEAIVLTVPGSERSYDLTGLKPGTEYKVVIQGVKGGTPSEPLSAIFTT
notes: FN3 domain
Regarding B13, in the assay with CD71 on SK-BR-3 cells, the “IC50, SKBR-3 viability, MMAF conjugate, first unlabelled column (+/- human transferrin)” value is 33 nM and the “IC50, SKBR-3 viability, MMAF conjugate, second unlabelled column (+/- human transferrin)” value was found to be 39 nM. Besides, the hCD71 in assay [1] is 3.51e+06. For the same molecule, the “hCD71:HSA” value in assay [2] was found to be 1330.

B14: SEQ ID NO 149 (designed binder)
chain: MLPAPKNLVVSRVTEDSARLSWTAPDAAFDSFIIPYAEVRPDGEAIVLTVPGSERSYDLTGLKPGTEYSVLIHGVKGGKLSEPLSAIFTT
notes: FN3 domain
Take B14: in the assay with CD71 on SK-BR-3 cells, the “IC50, SKBR-3 viability, MMAF conjugate, first unlabelled column (+/- human transferrin)” value was 9.7 nM and the “IC50, SKBR-3 viability, MMAF conjugate, second unlabelled column (+/- human transferrin)” value amounted to 5.5 nM. Moreover, the hCD71 in assay [1] stood at 2.77e+06. In addition, the “hCD71:HSA” value in assay [2] was determined as 826.

B15: SEQ ID NO 168 (designed binder)
chain: MLPAPKNLVVSRVTEDSARLSWTTPDAAFDSFFIGYLEPYPPGEAIVLTVPGSERSYDLTGLKPGTEYVVSIQGVKGGKPSDPLSAIFTT
notes: FN3 domain
Regarding B15, in the assay with CD71 on SK-BR-3 cells, the “IC50, SKBR-3 viability, MMAF conjugate, first unlabelled column (+/- human transferrin)” value is 32 nM and the “IC50, SKBR-3 viability, MMAF conjugate, second unlabelled column (+/- human transferrin)” value came to 7.2 nM. Moreover, the hCD71 in assay [1] amounted to 2.9e+06. Also, the “hCD71:HSA” value in assay [2] came out at 1480.

B16: SEQ ID NO 307 (designed binder)
chain: MLPAPKNLVVSRVTEDSARLSWTAPDAAFDSFPITYSEPAHYGEAIVLTVPGSERSYDLTGLKPGTEYHVGIMGVKGGVFSSPLSAIFTT
notes: FN3 domain
Take B16: in the assay with CD71 on SK-BR-3 cells, the “IC50, SKBR-3 viability, MMAF conjugate, first unlabelled column (+/- human transferrin)” value was determined as 47.9 nM and the “IC50, SKBR-3 viability, MMAF conjugate, second unlabelled column (+/- human transferrin)” value amounted to 30.8 nM. The hCD71 in assay [1] was found to be 2.19e+06. Moreover, the “hCD71:HSA” value in assay [2] was determined as 503.

B17: SEQ ID NO 261 (designed binder)
chain: MLPAPKNLVVSRVTEDSARLSWTAPDAAFDSFTIVYGEWGVPGEAIVLTVPGSERSYDLTGLKPGTEYDVWIEGVKGGDLSWPLSAIVTT
notes: FN3 domain
On to B17, for which, in the assay with CD71 on SK-BR-3 cells, the “IC50, SKBR-3 viability, MMAF conjugate, first unlabelled column (+/- human transferrin)” value was found to be 1.24 nM and the “IC50, SKBR-3 viability, MMAF conjugate, second unlabelled column (+/- human transferrin)” value was found to be 31.2 nM. Also, the hCD71 in assay [1] amounted to 4.23e+06. In addition, in assay [2], the “hCD71:HSA” value came to 763.
